Source: the nanobody polyreactivity screen of Harvey et al. (2022)

Test: yeast display, Sf9 membrane polyspecificity reagent, FACS + sequencing; frameworks hold sequencing errors
Procedure, shortened: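 Synthetic nanobody libraries on Saccharomyces cerevisiae BJ5465 were galactose-induced for 36–48 hours, stained 1 hour at 4 °C with 10% biotinylated, detergent-solubilized Sf9 membrane reagent and enriched on streptavidin microbeads. FACS then separated cells into low and high (top ~1%) gates by anti-HA (expression) and streptavidin (reagent binding) fluorescence. Genes were colony-PCR amplified, MiSeq 2 × 250 sequenced and CDR-length filtered. A clone's polyreactivity label is that of its gate of origin.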

| Sequence | polyreactivity (PSR sort gate) |
| --- | --- |
| QVQLVESGGRLVQAGGSLRLSCAASGSTIKSYAMGWYRQAPGKERELVAGITSGDSTNYADSVKGRFTISRDNAKNTVYFQMNSLKPDDTAVYYCNAVTQARYYYWGQGYQVTVSS | low polyreactivity |
| QVQLVESGGGLVQAGGSLRLSCAASGRIFNRNAMGWYRQAPGKERELVAAISSSGGSTYYADSVKGRFTISRDTAKNTVYLQMNSLKPEDTAVYYCAAVTQSYGYYYWGQGTQVTVSS | high polyreactivity |
| QVQLAESGGGLVQAGGSLRLSCAASGGTIGVNAMGWYRQAPGKERELVARISRIGASTHYADSVKGRFTISRDNAKNTVYLMMNSLKPEDTAVYYCAKSNGTPGNFGYWGQGTQVTVSS | low polyreactivity |
| QVQLVESGGGLVQAGGSLRLSCAASGRTFDIYAMGWYRQAPGKARELVAAISIAGSTNYADSVKGRFTISRDNAKNTVYLQMNSLKPEDTAVYYCAAAKPKKSRGSAYEYWGQGTLVTVSS | high polyreactivity |
| QVQHVESGGGLVQAGGSLRLSCAASGYTFGYYAMGWYRQAPGKERELVASITERGGSTYYADSVKGRFTISRDNAKNTVYLQMNSLKPEDTAVYYCAADWDPSWWLFPTSSYDYWGQGTQVTVSS | low polyreactivity |
| QVQLVESGGGLVQEGGSLRLSCAASGRIFATYVMGWYRQAPGKERELVAAISRRGSSTYYADSVKGRFTISRDNAKNTVYLQMNSLKPEDTAVYYCAAVHKVGWSRHYDYWGLGTQVTVSS | high polyreactivity |
| QVQLVESGVGLVQAGGSLRLSCAASGSTFDYYVMGWYRQAPGKVRELVAAISETGDDTYYADSVKGRFTLSRDNAKNTVYLQINRLNPEDTAVYYCAADSYFYSGFVRRFYFWGQGSQVTVSS | high polyreactivity |
| QVQLLESGGGLVQSGGSLRLSCADSGNIFVTYAMGWYRQAPGKESELVAGITSSDDSTYYADSVKVRFTISLDNAKNTVYLQMNSLKPEDTAVYYCATYYWEVGIGQFYYWGQGTQVTVSS | low polyreactivity |
| HVQLQESGGGLLQAGGSLRLSCAASGSIFQATYMGWYRQATGKEREFVASITYGSITNYADSVKGRFTIGRDNAKDTLYLQMNSLKPEFTAVYYCAVARHYIPAFHYWGQGTQVTVSS | low polyreactivity |
| QVQLVESGGGLVKAGGSLRLRCAASGSIFRYYVMGWYRQAPGKERELVAAISGGSTYYADSVKGRFTISRDNAKNTVYLQLNSLKPEDTAVYYSAARGKRRSGGENYAYGYWGQGTQVTVSS | high polyreactivity |
| QVQLVESVGGLVQAGGSLRLSCAASARIFRYYAMGWDRQAPGKERELVAAITWNGGSTYYADSVKGRFTISRDNAKNTVYVQLNSLKPEDTAVYYCAAVSYYTHYRLPYDYWGQGTQVTVSS | high polyreactivity |
| QVQLVESGVGLVQAGGSHRFICAASGIIFYSYAMGWYRQAPGKEREFVAAITNSDGSTYYADTVKRRFTISRDNAKNTVYLQMNSLKPVDTAVYMYYWGQGTQVTVSS | low polyreactivity |
| QVQLVESGGGLVQAGGSLRLSCAASGSIFDDYAMGWYRQAPGKERELVAAITSGGSTYYADSVKGRFTISLDNAKNTVYLQMNSLKPEDTAVYYRATRYHWSSSFAPVGAYGYWGQATQVTVSS | low polyreactivity |
| QVQLVESGGVLVQAGGRLRISCAASGSTFVRNAMGWYRQAPGKEMELVAAISFSGGSTYYADSVKGRFTISRDTAKNTVYLQMNSLKPEDTAVYYCAKKTRYRSRGMNYWGQATQVTVSS | high polyreactivity |
| QVQLVESGGGLVQAGGSLRLSCAASGRIFSIYGMGWYRQAPGKERELVAVISGSVGITYYADSVKGRFTISRDNAKHTVYLQMNSLKPEDTAVYYCNAKVRRRKYDYWGQGTQVTVSS | high polyreactivity |
| QVQLVESAGGLGQAGGSLRLSSAASGITTRTYAMGWYRQARGNERELVAAISDSGDRTYYADSVKGRFTISRDNAKNTVYLQMNSLKPEETAVYYCAVHAPGPRCEYWGQGTQVTVSS | low polyreactivity |
| QVQLVESGGGLVQAGGSLRLSSAASGRIFVAYAMGWYRQAPAKERELVAAITWSGTSTYADSVKGRFTISRDNAKNTVYLQMNSLKPEDTAVYYCAKKAIVSDQWDKYDYWGQGTQVTVSS | low polyreactivity |
| QVQLVESGGGLVQAGGSLRLSCAASGSTFAWYDMGWYRQAPGKEREFVAAIDYGGGSTYADSVKGRFTISRDNAKNTVYLQMNSLKPEDTAVYYCNADNWVYLYDYWGQGTQVTVSS | low polyreactivity |
| QVQLVESGGGLVQAGGSLRLSCAASGRTFYYYTRGWYRQAPGKERELVAAISRRGGRTYYADSVKGRFTISRDNAKNTVYLQMNSLKPEDTAVYNCAKETPHCPGLGGYDYWGQGTQVTVSS | high polyreactivity |
| QVQLVESGGGLVQAGGSLRLSCAASGSTFAIYAMGWYRQAPGKERELVAAISKSGGSTYYADSVKGRFTISRDNAKNTVYLQMNSLKPEDTAVYYCARRQYAFGPYGFYYWGQGTQVTVSS | high polyreactivity |
| QVQLVESGGGLVQAGGSLRLICAASGSIFGLYVMGWYRQAPGKERELVATITSGGSTYYADSVKGRFTISRDNAKNTVYLQMNSLKPEDTAVYYCNTRWTPSREYDYWGQGTQVTVSS | low polyreactivity |
| QVQLVESGGGLVHAGGSLRLSCAASGIIFDDYAMGWNRQAPGKERELVAAIRSGVSTNYADSVKGRFTISRDNAKNTVYLQMNSLKPEDTAVYYCAARNTAPYFTEYDYWGQGTQVTVSS | low polyreactivity |
